Consider one substance from publication PMC3956929.

The target of experiment [1] is GAL4 DNA-binding domain-fused Bombyx mori Ago3 (pDBD-Ago3) (Bombyx mori) (UniProt A9ZSZ2). Briefly: two-hybrid; insect two-hybrid (I2H) in BmN4 cells: GAL4 DBD bait, p65 AD prey, 4xUAS-TATA-Luc reporter, luciferase at 72 h post-transfection, relative to the pUC18 control prey; also in BmN4-SID1 cells 72 h after dsRNA against HP1a, HP1b, Ago3, Siwi, putative piRNA-related genes or GFP (control).

Experiment [2] deals with GAL4 DNA-binding domain-fused Bombyx mori Siwi (pDBD-Siwi) (Bombyx mori) (UniProt A8D8P8). The experiment is described as above.
UniProt A8D8P8, sequence (A8D8P8 whole entry, the tested form may be a part): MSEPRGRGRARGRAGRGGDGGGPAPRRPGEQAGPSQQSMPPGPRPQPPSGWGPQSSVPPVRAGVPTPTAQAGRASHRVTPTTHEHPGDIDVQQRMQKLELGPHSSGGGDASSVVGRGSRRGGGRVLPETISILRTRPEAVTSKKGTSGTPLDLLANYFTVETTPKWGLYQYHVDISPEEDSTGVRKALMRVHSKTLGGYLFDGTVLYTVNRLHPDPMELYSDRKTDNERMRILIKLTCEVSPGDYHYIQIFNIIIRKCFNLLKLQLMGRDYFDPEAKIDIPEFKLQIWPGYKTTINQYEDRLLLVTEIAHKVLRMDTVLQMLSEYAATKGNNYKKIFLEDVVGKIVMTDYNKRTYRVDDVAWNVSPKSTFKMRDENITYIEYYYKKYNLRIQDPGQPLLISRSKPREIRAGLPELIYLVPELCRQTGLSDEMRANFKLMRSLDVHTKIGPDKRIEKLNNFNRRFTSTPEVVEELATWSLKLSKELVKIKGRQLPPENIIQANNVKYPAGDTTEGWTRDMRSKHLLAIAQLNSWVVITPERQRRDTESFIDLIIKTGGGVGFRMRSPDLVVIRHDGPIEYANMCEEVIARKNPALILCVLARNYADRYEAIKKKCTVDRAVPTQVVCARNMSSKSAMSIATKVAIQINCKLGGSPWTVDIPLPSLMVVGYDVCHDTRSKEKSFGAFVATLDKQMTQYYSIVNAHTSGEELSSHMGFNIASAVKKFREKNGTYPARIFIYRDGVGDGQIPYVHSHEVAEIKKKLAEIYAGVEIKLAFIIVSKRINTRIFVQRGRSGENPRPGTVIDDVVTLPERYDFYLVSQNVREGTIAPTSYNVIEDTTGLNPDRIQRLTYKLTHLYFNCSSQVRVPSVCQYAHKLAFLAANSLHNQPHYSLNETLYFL

UniProt A9ZSZ2, sequence (A9ZSZ2 whole entry, the tested form may be a part): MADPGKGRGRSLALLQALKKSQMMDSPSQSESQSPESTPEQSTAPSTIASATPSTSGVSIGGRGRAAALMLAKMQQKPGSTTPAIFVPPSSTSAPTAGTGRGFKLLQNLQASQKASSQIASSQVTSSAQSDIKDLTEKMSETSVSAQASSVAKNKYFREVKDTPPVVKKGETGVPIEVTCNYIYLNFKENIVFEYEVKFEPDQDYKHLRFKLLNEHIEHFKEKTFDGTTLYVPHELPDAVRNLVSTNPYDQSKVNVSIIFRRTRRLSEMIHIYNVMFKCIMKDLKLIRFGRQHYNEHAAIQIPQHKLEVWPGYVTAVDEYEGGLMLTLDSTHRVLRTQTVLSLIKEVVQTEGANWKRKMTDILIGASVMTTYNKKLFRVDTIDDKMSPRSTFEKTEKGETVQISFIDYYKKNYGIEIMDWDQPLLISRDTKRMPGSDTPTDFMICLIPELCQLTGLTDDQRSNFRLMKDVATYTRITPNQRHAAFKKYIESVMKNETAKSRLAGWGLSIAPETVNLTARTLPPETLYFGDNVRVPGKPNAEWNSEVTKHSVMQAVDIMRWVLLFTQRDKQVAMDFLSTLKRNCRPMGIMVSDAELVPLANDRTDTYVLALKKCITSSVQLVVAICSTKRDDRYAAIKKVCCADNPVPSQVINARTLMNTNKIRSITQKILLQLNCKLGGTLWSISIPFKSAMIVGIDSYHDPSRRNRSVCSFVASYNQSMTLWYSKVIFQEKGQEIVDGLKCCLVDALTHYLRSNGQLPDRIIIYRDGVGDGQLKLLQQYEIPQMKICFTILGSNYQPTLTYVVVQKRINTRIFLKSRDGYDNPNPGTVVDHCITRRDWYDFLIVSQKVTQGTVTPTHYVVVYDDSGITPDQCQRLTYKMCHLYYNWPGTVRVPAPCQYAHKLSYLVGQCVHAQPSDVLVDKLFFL

Regarding “p65 activation domain-fused Bombyx mori HP1a (pAD-HP1a) (natural protein)”, the fold increase of reporter activity over the pUC18 control in experiment [1] and in experiment [2] was > 10 fold in each case.
